B1: Mzt1-6xHis (natural protein, S. pombe, UniProt P0CF96 1-64, looked up)
chain: MSESTKETIEVLYEIGTLLGTELDKTTLSLCISLCENNVHPEAIAQIIREIRMAQEQTVDTEPS
notes: Mzt1 of S. pombe; also called MOZART1 homolog; source: High Five insect cells (MultiBac baculovirus); coexpressed in lysate, co-purified in complexes, or purified alone (Ni2+ IMAC, Superdex 75); not shown: 6xHis, C-terminal, kept
B2: 6xHis-Mto1[bonsai] (domain or fragment, S. pombe, UniProt O94488 131-549, looked up)
chain: TTDDEQLSPVLTANQGFQSQEQYEEDSYNNYDYTSDPSSPNYISSSLDQLPHLDDEDDLQLTPIKEERNYLHSQDAPTTNALSKKISDILIPASAMKDLKDRKNALAKEFEESQPGSSLTLKEQANVIDNLRKEVFGLKLKCYFLYDQLNKFHDQEVQDIMKQNIDLKTLTMELQRAVAGYEKKISGLESRIKPDQSFNLSTPSPAPSNLITLQSRYSQALSELETTKRAFAALRKEKSKKTNYSVGAYNEDRNVLSNMLDNERREKEALLQELESLRVQLSKKVPMPAKNTDERVIETLQRSNELLRMDISMQNEALLLRKQENDRLVKQVEELTVALNSGKMNAIVEAESSKNELWDSMMVSRMKTQEQSIELTRLYKQLQDIEEDYENKLMRMEQQWREDVDQLQEYVEEITQELQ
notes: Mto1 of S. pombe (CM1-domain protein), amino acids 131-549; lacks residues 1-130 and 550-1,115; also called Mto1(131-549); source: High Five insect cells (MultiBac baculovirus), coexpressed with Mto2; in lysate, and co-purified in complexes; not shown: 6xHis, N-terminal, kept
B3: Mto1/2[bonsai] complex (complex, S. pombe)
chain 1: B2 chain
chain 2: MSEHNYQSDREVAEDPFLNYEASANQLSSNSRESTPRGSPWRAGMRSASLMTEPLEDSMYSDNNYLDNGVSFTKDENPLYSPSWPSLADANVNSMKSNNAIQEHKAAKFVSEKSLEKVSTADNNLVLQELENLRERLNQVELQLSERPSSYLGYHNNLSPYRSPNSYPSLLPSTHSPHSPAPLSTMQTALMRLRTYHPSPIILKPVEQAVNHAITLVNTSPSSVVDALCRSLAELCLGLVQEAIDASILSQQESSNSLDLVRHTPPLNYTSSVDSSPQRMASDSYGRPSLHLNDPFPSVDLQSNELSHHNVRTTLFSDDSRFHSKIHTHSTPPSQMYSAASHFRYRSDPSTRHVSNSTNKSSLHPSPTSLRVAHPIIPQRASPASQSFPSLQDTPSP
notes: Mto1 of S. pombe, amino acids 131-549 (Mto1[bonsai]); as m7; Mto2 of S. pombe; as m8; Copy numbers of the two chains in the complex are not measured here; also called 6xHis-Mto1/2[bonsai]; source: High Five insect cells (MultiBac baculovirus); coexpressed in lysate, or purified (ammonium sulfate, Ni2+ Fractogel, Superose 6); not shown: 6xHis, N-terminal, kept
B4: Alp4 (untagged) (natural protein, S. pombe, UniProt Q9Y705 1-784, looked up)
chain: MVRSISSVLAKEESENGSPIPALEEGSVYHVSLKSEGVSPFSDRIQLNYLYDGKTFSDPSNLNIHQQEACLINELLNAFMGMEGVFVHLQDMKASSEFETIIMPPSFYILPGFDLGIKDIASEMLEMGSHYLSITAFIESRSHFEYGFVNHALCAALRKFVMDYVVLIMQCENQSRIDPNFSLQTLRLYTLPTSRSLRQVYLILRDLLLSMEKNASSSDDLGLSNIDDLLEQLNEGNDISHVVNATRSKKKVCKGGQVISFLTESLTKYAGDPVARKILTYLLREASRPYTKMLNEWIHLGLVNDPYDEFMIKIHKGITSMQLDEDYTDEYWEKRYVIREDQVPPQLLDLQNKVLFAGKYLNVVLECRKGVNNLASLNAKDDTQNQLLWPSTFDDDNFTLNIMNAYVYANESLLQLLQSSQSLYAHLYSLKHYFFLDQSDFFTTFLDNAQHELRKPAKYISITKLQSQLDLALRQPGTITATDPHKEYVTVEVNQTSLIDWLMHIVSISGLEEGTSSQGNEVWNESITKQADVGNETRNFESEHNRSTQGTSKVGSDKDINGFETMQLCYKVPFPLSLILSRKAIIRYQLLFRYFLLLRHVEMQLENSWVQHSKNSAWRLNSSNAKIEQWKRNSWLLRTRMLSFVQKIIYYTTSEVIETHWGKFMGELENARTVDNLMQEHIDFLDTCLKECMLTNSRLLKVQSKLLNTCAMFASYTSTFTRSLYLLENSEESFDEGRMDKMEEILRRYEDSFSRHLKSLVNACNYFASTETAALLSLVMKLTG
notes: Alp4, S. pombe γ-TuSC protein, homolog of human GCP2; also called homolog of human GCP2; source: High Five insect cells (MultiBac baculovirus), coexpressed with partners; in lysate, and co-purified in complexes
B5: γ-tubulin (Gtb1), untagged (natural protein, S. pombe, UniProt P25295 1-446, looked up)
chain: MGREIITLQAGQCGNQIGSQFWQQLCLEHGIGPDGTLESFATEGVDRKDVFFYQSDDTRYIPRAILIDLEPRVVNNILSDTYGSLYNPENILITKNGGGAGNNWANGYSHAERIFEDIMDMIDREADGSDSLEGFSLLHSIAGGTGSGLGSFLLERLNDRYPKKIIQTYSVFPNSQSVSDVVVQPYNSLLALKRLTLNADSVVVLDNAALAHIAADRLHTQNPTFHQQNQLVSTVMSASTTTLRYPGYMNNDLVSIIASLIPSPRCHFLLTSYTPFTNQQVEEAKAIRKTTVLDVMRRLLLPKNQMVSVNPSKKSCFISILDIIQGEADPADVHKSLLRIRERRYASFIPWGPASIQVALSKKSPYIKTNHRVSGLMLANHTSIASLFKRTLDQYDRLRKRNAFLEQYKKEAIFEDDLNEFDSSRDVVADLINEYEACEDPNYLSL
notes: γ-tubulin Gtb1 of S. pombe; source: High Five insect cells (MultiBac baculovirus), coexpressed with partners; in lysate, and co-purified in complexes

Legend:
[1] = target: the molecule itself; assay: SEC-MALS; 100 μL of 1.98 mg/mL Mzt1 on Superdex-75 10/300 GL in 100 mM Tris, 50 mM NaCl, pH 7.5, 22°C
Alp6-MBP [2] = target: T1, Alp6-MBP (S. pombe, UniProt Q9USQ2 1-832); assay: cross-linking; cross-linking mass spectrometry of purified MGM holocomplex (from coexpression) with EDC/Sulfo-NHS, 1:2:4.4 (w/w/w), 90 min, 18°C, 40 mM K-HEPES, 300 mM NaCl, 1 mM MgCl2 pH 7.5; settings: both partners purified
T1 construct: Alp6, S. pombe γ-TuSC protein, homolog of human GCP3; also called Alp6 (homolog of human GCP3) with C-terminal MBP-6xHis tag; tagged subunit of γ-TuSC^Alp6-MBP; source: High Five insect cells (MultiBac baculovirus), coexpressed with partners; in lysate, and purified on amylose; not shown: MBP, C-terminal, kept; 6xHis, C-terminal, kept
T1 sequence (looked up): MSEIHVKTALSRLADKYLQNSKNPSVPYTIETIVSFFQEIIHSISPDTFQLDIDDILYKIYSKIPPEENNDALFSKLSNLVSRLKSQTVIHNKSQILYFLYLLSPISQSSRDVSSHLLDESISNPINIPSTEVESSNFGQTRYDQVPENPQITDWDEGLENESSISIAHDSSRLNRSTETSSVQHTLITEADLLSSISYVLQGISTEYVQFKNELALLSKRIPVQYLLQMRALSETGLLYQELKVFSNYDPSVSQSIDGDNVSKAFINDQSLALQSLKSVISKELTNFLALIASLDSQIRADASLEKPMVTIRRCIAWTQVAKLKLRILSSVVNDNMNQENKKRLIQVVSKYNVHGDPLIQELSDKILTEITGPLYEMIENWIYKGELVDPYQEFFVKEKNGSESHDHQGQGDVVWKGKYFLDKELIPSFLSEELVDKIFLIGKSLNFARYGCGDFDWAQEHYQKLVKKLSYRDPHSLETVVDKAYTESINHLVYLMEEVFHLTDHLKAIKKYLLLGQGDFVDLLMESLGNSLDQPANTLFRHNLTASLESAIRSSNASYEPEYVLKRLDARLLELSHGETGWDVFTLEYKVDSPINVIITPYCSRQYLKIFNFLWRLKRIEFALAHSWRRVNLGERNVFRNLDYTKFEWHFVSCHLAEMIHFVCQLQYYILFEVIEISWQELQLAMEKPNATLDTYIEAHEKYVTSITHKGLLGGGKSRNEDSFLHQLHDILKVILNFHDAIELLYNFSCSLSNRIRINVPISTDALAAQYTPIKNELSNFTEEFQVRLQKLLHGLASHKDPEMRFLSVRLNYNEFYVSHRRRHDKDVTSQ

Alp4 (untagged) = target: B4; assay: as above; settings: both partners purified
[3] = target: the molecule itself; assay: glycerol density-gradient centrifugation; 10-30% glycerol density gradient in HB100, 55,000 rpm, 4°C, 45 or 80 min; one affinity-purified complex alone, 100 μL at 1 mg/mL; S values against marker proteins
Alp6-MBP [4] = target: T1, Alp6-MBP; assay: pull-down; amylose resin purification via Alp6-MBP from lysates of High Five cells coexpressing Alp6-MBP, Alp4 and Gtb1, with or without Mzt1-6xHis; HB100 buffer (40 mM K-HEPES, 100 mM KCl, 1 mM EGTA, 1 mM MgCl2, 0.1 mM GTP, 1 mM DTT pH 7.5), overnight 4°C, maltose elution, SDS-PAGE; settings: partners not purified

B1 was tested, and the “stoichiometry N” value [1] was 2.

B2: binds (Alp6-MBP [2]); binds (Alp4 (untagged)).

B3: binds [3].

B4: binds (Alp6-MBP [4]).

B5: binds (Alp6-MBP [4]).

Source: article PMC6616311, “Reconstitution of Microtubule Nucleation In Vitro Reveals Novel Roles for Mzt1” (Current Biology, 2019)
